Paper PMC6091153
Values joined by “and” are separate entries in the source; they are usually repeats but may differ in a detail not shown here. Identical values can stand only once.

Target: Saccharomyces cerevisiae glutaredoxin Grx6 (recombinant, without the signal peptide) (S. cerevisiae) (UniProt Q12438)
Assay: SEC; gel filtration of freshly purified recombinant protein on a Superdex 75 column, elution followed at 280 nm and 430 nm; the dimer peak is brown (Fe-S centre); FeSO4·7H2O and (NH4)2Fe(SO4)2·6H2O added in one run (more dimer and tetramer)

- stoichiometry N: 4 and 2
Substance: Saccharomyces cerevisiae glutaredoxin Grx6 (recombinant, without the signal peptide) (from UniProt Q12438 30-231) (natural protein)
